# Laboratory results from article PMC7388967.
# Tests used:
# [1] = biological target: Collagen I Rat Protein, Tail (rat collagen type I) (rat) (UniProt P02454); experiment: whole-cell adhesion assay (fluorescence of sfGFP-expressing bacteria); commercial 96-well plates pre-coated with rat collagen type I (GIBCO); YadA induced with 0.2 µg/ml ATc, compared with the not-induced control
# [2] = biological target: Collagen I Bovine Protein (bovine collagen type I) (bovine) (UniProt P02453); experiment: whole-cell adhesion assay (fluorescence of sfGFP-expressing bacteria); strain AS76; wells coated with 100 µg/ml bovine collagen type I for 30 min, with or without blocking with 50 mg/ml BSA in PBS for 30 min; YadA induced with 0.1 µg/ml ATc, compared with uninduced cells
# Sequence of UniProt P02453 (P02453 162-1217, chain 1 of 2): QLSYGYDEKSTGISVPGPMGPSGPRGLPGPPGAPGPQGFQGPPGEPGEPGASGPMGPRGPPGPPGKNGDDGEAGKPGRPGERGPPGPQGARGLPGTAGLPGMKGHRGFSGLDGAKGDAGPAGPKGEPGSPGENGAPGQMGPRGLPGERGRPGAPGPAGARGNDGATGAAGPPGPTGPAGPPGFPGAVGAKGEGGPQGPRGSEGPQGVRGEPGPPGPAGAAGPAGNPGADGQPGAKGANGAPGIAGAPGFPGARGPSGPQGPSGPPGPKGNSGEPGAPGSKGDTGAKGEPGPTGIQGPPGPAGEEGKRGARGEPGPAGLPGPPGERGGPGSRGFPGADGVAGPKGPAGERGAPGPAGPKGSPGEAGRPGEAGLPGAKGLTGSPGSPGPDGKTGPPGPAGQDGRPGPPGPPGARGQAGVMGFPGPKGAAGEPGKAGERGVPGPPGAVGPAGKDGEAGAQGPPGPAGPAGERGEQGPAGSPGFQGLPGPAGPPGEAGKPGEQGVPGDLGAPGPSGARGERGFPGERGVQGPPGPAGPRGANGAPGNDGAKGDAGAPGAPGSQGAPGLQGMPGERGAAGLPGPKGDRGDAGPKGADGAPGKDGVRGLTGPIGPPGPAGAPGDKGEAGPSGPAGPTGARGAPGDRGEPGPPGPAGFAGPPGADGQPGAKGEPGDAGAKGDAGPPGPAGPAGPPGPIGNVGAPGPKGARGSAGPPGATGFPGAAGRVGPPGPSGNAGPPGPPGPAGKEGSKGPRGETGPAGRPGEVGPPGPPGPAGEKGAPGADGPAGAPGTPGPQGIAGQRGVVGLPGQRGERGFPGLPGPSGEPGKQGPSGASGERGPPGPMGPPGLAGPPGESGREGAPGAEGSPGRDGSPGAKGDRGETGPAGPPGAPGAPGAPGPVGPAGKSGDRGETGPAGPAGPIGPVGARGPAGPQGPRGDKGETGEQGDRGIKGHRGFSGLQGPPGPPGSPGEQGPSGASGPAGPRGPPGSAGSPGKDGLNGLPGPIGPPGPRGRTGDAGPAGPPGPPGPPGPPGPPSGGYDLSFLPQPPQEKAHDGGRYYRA
# Sequence of UniProt P02453 (P02465 80-1117, chain 2 of 2, further chain): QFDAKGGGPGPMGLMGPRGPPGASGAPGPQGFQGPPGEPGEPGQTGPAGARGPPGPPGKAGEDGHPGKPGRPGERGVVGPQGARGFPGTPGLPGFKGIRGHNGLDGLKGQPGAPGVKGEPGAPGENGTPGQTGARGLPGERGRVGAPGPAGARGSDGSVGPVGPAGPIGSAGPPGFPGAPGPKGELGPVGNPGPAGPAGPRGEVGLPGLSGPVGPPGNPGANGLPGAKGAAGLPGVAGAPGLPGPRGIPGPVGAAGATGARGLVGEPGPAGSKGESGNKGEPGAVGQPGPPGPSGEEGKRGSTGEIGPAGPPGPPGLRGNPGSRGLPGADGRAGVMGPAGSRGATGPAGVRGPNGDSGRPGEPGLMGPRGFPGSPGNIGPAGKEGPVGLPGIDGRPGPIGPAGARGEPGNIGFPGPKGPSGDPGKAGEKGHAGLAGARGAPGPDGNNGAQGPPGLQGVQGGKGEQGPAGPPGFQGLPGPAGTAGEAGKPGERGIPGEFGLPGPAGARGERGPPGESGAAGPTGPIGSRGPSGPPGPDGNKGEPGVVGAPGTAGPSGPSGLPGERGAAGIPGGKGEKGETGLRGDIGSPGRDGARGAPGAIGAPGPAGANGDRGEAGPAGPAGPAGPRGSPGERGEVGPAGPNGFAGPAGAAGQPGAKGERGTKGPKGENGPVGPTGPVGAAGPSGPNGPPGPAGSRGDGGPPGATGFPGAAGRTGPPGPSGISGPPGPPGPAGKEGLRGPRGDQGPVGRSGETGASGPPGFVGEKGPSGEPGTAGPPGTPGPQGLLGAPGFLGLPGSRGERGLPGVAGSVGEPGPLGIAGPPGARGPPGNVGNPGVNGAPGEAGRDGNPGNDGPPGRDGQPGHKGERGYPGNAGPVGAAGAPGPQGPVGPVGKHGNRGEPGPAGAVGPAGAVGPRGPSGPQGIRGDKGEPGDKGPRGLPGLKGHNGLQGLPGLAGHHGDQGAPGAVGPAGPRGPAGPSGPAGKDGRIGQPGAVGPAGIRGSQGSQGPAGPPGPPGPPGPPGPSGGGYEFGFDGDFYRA
# Sequence of UniProt P02454 (P02454 152-1207, chain 1 of 2): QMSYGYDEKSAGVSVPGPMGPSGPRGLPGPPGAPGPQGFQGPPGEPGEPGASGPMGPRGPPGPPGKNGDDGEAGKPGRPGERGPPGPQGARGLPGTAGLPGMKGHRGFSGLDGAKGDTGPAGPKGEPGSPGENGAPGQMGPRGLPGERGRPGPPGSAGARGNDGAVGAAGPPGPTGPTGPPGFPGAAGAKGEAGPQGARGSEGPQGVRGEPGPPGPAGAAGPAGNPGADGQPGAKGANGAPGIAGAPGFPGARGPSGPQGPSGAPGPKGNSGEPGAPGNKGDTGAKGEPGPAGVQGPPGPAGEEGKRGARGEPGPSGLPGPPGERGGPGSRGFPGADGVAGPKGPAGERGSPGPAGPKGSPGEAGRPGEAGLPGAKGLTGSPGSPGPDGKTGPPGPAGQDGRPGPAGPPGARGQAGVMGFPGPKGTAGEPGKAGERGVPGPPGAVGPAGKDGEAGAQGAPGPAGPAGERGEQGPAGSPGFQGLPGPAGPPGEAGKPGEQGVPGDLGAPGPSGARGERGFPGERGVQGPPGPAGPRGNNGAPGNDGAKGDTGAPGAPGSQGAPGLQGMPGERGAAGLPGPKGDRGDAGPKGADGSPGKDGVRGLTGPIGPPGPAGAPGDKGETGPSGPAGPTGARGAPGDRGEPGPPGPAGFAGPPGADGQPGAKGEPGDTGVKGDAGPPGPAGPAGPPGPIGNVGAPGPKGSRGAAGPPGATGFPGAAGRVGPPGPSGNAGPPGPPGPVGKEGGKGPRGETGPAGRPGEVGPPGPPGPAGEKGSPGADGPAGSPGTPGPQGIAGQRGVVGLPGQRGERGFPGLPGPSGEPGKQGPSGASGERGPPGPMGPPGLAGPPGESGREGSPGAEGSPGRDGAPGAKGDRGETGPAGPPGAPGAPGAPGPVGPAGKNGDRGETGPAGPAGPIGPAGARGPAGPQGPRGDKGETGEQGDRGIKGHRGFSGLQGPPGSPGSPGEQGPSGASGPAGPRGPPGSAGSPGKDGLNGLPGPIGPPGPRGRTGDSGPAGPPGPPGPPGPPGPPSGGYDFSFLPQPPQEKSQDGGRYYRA
# Sequence of UniProt P02454 (P02466 86-1125, chain 2 of 2, further chain): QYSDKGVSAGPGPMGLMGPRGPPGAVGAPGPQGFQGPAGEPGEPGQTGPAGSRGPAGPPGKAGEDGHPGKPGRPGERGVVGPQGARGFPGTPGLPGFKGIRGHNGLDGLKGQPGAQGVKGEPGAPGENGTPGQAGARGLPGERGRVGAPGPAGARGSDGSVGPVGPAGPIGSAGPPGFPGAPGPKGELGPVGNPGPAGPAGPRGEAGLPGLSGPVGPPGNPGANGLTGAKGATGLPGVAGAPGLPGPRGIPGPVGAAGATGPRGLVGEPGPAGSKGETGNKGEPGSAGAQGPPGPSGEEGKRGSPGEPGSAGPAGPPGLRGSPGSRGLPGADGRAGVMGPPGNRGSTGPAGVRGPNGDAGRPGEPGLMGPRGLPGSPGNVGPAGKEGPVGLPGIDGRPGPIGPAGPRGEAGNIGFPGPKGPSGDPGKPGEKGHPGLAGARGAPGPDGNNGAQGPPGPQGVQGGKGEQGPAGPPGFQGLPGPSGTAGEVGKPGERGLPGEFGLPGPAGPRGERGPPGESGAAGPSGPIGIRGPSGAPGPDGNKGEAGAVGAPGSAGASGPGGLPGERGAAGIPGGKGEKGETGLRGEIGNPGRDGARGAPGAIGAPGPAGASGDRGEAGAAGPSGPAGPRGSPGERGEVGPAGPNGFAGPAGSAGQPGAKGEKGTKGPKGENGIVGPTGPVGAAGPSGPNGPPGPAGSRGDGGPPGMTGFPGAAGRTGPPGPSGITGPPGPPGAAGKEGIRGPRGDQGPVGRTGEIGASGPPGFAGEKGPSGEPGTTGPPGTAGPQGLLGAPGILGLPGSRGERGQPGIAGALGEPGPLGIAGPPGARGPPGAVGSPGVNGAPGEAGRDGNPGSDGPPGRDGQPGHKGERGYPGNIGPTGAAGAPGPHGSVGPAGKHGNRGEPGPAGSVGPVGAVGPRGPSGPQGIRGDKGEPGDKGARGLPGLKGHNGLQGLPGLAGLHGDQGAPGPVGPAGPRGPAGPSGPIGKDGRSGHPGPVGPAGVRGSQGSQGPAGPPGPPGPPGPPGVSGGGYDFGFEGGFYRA
substance,measurement,setting,value
"Yersinia enterocolitica Adhesin A (YadA), wild type, on the surface of E. coli cells (from UniProt A1JUB7 26-422) (natural protein)","fold difference of signal, induced against not-induced control",[1],2.5 fold
same,"fold change of signal, YadA-expressing against uninduced cells (collagen-coated, BSA-blocked wells)",[2],4.1 fold
same,"fold change of signal, YadA-expressing against uninduced cells (collagen-coated, not BSA-blocked wells)",[2],4.4 fold
